In patent US20230203170A1 (DRAGONBOAT BIOPHARMACEUTICAL SHANGHAI, published 2023):

T1: full-length mouse CSF-1R (RefSeq ID NP_001032948) expressed on HEK293F cells (mouse, UniProt P09581 20-977)
T1 construct: whole, on cells
T1 sequence (looked up): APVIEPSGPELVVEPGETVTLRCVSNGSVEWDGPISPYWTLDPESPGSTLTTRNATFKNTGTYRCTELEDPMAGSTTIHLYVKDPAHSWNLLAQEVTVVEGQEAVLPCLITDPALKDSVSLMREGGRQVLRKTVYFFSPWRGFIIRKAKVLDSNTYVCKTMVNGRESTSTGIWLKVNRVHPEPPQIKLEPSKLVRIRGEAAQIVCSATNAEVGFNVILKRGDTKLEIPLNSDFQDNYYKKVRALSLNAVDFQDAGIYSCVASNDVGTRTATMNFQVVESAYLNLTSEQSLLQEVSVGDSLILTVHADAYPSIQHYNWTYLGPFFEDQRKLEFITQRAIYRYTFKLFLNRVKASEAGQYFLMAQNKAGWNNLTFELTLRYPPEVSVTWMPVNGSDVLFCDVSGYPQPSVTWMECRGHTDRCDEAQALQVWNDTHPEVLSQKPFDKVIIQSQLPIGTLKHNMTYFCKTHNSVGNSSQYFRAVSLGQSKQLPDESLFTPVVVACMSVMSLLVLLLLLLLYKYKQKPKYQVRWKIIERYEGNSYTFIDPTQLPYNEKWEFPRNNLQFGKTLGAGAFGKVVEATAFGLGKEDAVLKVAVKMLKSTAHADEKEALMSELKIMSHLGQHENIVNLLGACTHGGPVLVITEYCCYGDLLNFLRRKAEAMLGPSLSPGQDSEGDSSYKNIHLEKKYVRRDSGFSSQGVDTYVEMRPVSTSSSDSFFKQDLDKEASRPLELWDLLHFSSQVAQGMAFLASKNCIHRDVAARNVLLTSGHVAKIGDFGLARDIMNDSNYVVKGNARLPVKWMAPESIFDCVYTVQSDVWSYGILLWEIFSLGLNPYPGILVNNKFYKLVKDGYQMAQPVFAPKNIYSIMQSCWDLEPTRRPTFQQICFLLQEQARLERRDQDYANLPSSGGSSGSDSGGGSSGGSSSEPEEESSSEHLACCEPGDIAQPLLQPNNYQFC


Columns and labels:
[1] = target: full-length mouse CSF-1R (RefSeq ID NP_001032948) expressed on HEK293F cells (mouse) (UniProt P09581); assay: flow cytometry on HEK293F cells transiently expressing full-length mouse CSF-1R (IRES-EGFP vector), IgG at 100 nM, Alexa Fluor 647 anti-human Fc detection [Conti.]
[2] = target: T1, full-length mouse CSF-1R (RefSeq ID …); assay: flow cytometry on transfected HEK293F cells
Experimental: (§1) The specificities of the antibodies were also assessed against human, monkey and mouse CSF-1R that are transiently expressed on the surface of HEK293F cells (FIG. 1). Briefly, HEK293F cells were transfected with a plasmid expressing full-length human, monkey (RefSeq ID XP_015307616) or mouse (RefSeq ID NP_001032948) CSF-1R from a bicistronic IRES vector. EGFP was used to identify the transfected cells. After 40 hrs, the transfected cells were harvested and then washed once with 1% PBSA buffer (1% (w/v) BSA in 1×PBS). Cells were then incubated with various IgGs (each at 100 nM) for 1 hr at room temperature, washed once with pre-chilled 1% PBSA buffer, and incubated with Alexa Fluor® 647 conjugated mouse anti-human Fc antibodies for 30 min on ice. The cells were washed once prior to analysis by flow cytometry (Beckman® CytoFlex).

[3] = target: T2, human CSF1R-His (Acrobiosystem, CSR-H5228) (human, UniProt P07333 20-512, limits assumed); assay: SPR Biacore T200; IgG captured by anti-human Fc, CSF1R-His as analyte, 1:1 fit
T2 construct: Bought protein; The catalogue number is printed only for the SPR assay; also called human CSF-1R protein; not shown: His tag
Excerpt: The specific binding affinity and kinetics of antibodies against human CSF-1R protein were examined by surface plasmon resonance (SPR) analysis using a Biacore™ T200 instrument (GE, USA) according to the manufacturer’s guidelines. Anti-Human IgG (Fc) antibody (Sigma, I2136) was immobilized on CM5 chips according to the instructions of Amine Coupling kit (GE Biacore #BR-1000-50). The immobilized Anti-Human IgG (Fc) antibody was used to capture the antibodies. […] The running buffer used was 0.01 M HEPES, 0.15 M NaCl, 3 mM EDTA, 0.05% (v/v) surfactant P20, pH 7.4. Corresponding controls were conducted in each case using a blank flow cell with no protein captured for “background” subtraction. The association and dissociation curves were fitted to a 1:1 Langmuir binding model using Biacore T200 Evaluation Software (GE, USA) according to the manufacturer’s guidelines.

[4] = target: full-length monkey CSF-1R (RefSeq ID XP_015307616) expressed on HEK293F cells (monkey, UniProt A0A2K5WG90 20-976); assay: flow cytometry on HEK293F cells transiently expressing full-length monkey CSF-1R (IRES-EGFP vector), IgG at 100 nM, Alexa Fluor 647 anti-human Fc detection [Conti.]
Experimental: as §1

[5] = target: T1, full-length mouse CSF-1R (RefSeq ID …); assay: flow cytometry on HEK293F cells transiently expressing full-length mouse CSF-1R (IRES-EGFP vector), Alexa Fluor 647 anti-human Fc detection [Conti.]
Experimental: as §1

[6] = target: T3, full-length human CSF-1R expressed on cells (human, UniProt P07333 20-972); assay: flow cytometry on HEK293F cells transiently expressing full-length human CSF-1R (IRES-EGFP vector), IgG at 100 nM, Alexa Fluor 647 anti-human Fc detection [Conti.]
T3 construct: whole, on cells
Experimental: as §1

Sequence of full-length monkey CSF-1R (RefSeq ID XP_015307616) expressed on HEK293F cells (A0A2K5WG90 entry or part of it limits assumed, form in doubt): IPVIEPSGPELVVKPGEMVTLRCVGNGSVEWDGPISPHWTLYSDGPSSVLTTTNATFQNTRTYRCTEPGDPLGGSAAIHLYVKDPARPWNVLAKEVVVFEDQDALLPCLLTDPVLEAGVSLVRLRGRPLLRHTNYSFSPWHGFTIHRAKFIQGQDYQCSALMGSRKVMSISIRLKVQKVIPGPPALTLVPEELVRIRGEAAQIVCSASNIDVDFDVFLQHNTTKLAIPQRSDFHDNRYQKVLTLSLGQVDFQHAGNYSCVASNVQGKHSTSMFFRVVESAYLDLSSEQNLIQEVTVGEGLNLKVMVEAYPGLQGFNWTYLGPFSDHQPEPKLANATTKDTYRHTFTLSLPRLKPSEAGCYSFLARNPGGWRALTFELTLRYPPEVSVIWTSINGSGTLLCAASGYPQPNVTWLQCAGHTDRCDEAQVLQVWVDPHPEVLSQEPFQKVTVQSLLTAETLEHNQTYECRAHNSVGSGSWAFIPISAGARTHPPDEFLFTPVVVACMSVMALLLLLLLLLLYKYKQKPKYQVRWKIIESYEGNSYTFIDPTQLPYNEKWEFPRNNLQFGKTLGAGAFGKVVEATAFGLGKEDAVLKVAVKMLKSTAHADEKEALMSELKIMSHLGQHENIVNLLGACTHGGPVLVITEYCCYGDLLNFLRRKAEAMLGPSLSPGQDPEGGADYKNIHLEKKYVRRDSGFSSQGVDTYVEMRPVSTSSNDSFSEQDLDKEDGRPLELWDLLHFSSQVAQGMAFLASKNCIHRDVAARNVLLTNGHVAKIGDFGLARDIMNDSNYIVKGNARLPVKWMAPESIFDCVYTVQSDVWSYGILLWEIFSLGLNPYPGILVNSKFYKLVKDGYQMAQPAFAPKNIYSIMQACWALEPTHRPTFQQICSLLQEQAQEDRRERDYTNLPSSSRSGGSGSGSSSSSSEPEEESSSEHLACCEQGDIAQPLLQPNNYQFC

Molecule	percent of cells in the upper right quadrant (APC Ab binding positive, FITC Ag display positive) [1] [%]	binding result [2]	Kd [3] [nM]	percent of cells in the upper right quadrant (APC Ab binding positive, FITC Ag display positive) [4] [%]	binding result [5]	percent of cells in the upper right quadrant (APC Ab binding positive, FITC Ag display positive) [6] [%]
Isotype Ctrl (antibody)	0.17	–	–	–	–	–
TY21430 (antibody, human IgG4, V domains shown, Human IgG4 isotype with S241P mutation) VH: EVQLVESGGGLVQPGGSLRLSCAASGYSITSGHHWAWIRQAPGKGLEWVSSISGSGSTTYYADSVKGRFTISRDNSKNTLYLQLNSLRAEDTAVYYCARGSYYGAGSFDYWGQGTLVTVSS VL: DIQLTQSPSSLSASVGDRVTITCRASQGITSALAWYQQKPGKAPKLLIYDASSLESGVPSRFSGSGSGTDFTLTISSLQPEDFATYYCQQYYPWPWTFGQGTKVEIK	–	–	8.35	32.3	no binding (tested: 100 nM)	41.2

Results, then the molecule that gave them:

percent of cells in the upper right quadrant (APC Ab binding positive, FITC Ag display positive) [1] [%]	binding result [2]	Kd [3] [nM]	percent of cells in the upper right quadrant (APC Ab binding positive, FITC Ag display positive) [4] [%]	binding result [5]	percent of cells in the upper right quadrant (APC Ab binding positive, FITC Ag display positive) [6] [%]	Molecule
–	no binding (tested: 100 nM)	20.9	–	–	–	TY21431 (antibody, human IgG4, V domains shown, Human IgG4 isotype with S241P mutation) VH: EVQLVESGGGLVQPGGSLRLSCAASGFTFTDYAIHWVRQAPGKGLEWVSVISGYGSSTYYADSVKGRFTISRDNSKNTLYLQLNSLRAEDTAVYYCARGSYSSVYFDVWGQGTLVTVSS VL: DIQLTQSPSSLSASVGDRVTITCKASQDVRTAVAWYQQKPGKAPKLLIYAASSLQSGVPSRFSGSGSGTDFTLTISSLQPEDFATYYCQQSYPIPFTFGQGTKVEIK
–	–	13.8	28.8	no binding (tested: 100 nM)	41.7	TY21432 (antibody, human IgG4, V domains shown, Human IgG4 isotype with S241P mutation) VH: EVQLVESGGGLVQPGGSLRLSCAASGYTFSSYAIHWVRQAPGKGLEWVSVISGAGSSTYYADSVKGRFTISRDNSKNTLYLQLNSLRAEDTAVYYCARRTPAGNYFDYWGQGTLVTVSS VL: DIQLTQSPSSLSASVGDRVTITCRASQGISRWLAWYQQKPGKAPKLLIYDASSLESGVPSRFSGSGSGTDFTLTISSLQPEDFATYYCEQYLEVPPTFGQGTKVEIK
